# Results reported in PMC9937922.
# Target: proliferating cell nuclear antigen (PCNA) (human (endogenous in HAP1)) (UniProt P12004)
# Test: co-IP; Dynabeads Protein A cross-linked (BS3) with α-PCNA (PC10) or α-ENO1 (ab227978); 2 mg HAP1 cytosolic cell extract, 4 °C overnight; washes with 600 mM NaCl; western blot; both directions
# Chain of UniProt P12004 (P12004 whole entry): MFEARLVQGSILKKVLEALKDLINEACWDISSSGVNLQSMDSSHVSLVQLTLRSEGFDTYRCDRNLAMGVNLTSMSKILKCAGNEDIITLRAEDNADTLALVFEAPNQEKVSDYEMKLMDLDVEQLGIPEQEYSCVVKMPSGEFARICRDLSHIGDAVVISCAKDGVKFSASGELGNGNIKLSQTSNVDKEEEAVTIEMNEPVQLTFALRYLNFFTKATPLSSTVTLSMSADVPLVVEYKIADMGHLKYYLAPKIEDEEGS
substance,measurement,value
ENO1 F423A (from UniProt P06733 1-434) (enzyme),percent reduction of the interaction against WT ENO1,80 to 90%
